Data from US7361133B2, “Methods of detection utilizing modified bacteriophage” (The Johns Hopkins University, priority 1997, dated 2008).

What was measured:
[1] = biological target: T1, N-NR1 (NH2-terminal domain of NR1, a.a 1-561) fusion protein (Rattus norvegicus, UniProt P35439); test: Phage ELISA, binding to immobilized N-NR1 fusion protein; set-up: Inhibition of Mag-4.1 phage binding to N-NR1 by synthetic peptide: dose or concentration left out as unconfirmed
T1 construct: N-NR1 (aa. 1-561); made in house
Method: Phage selection. Six wells of a 96-well plate were precoated with mAb8610 ([…]) at 37° C. for one hour, blocked with 1% BSA for 30 minutes at 37° C. The N-NR1 fusion protein was first released by PIPLC digest after extensive washes of cells that express N-NR1. The released N-NR1 protein in the MEM medium was first treated by endo-F (1 unit per 10 mg protein) for overnight at 37° C. The treated preparation was affinity-purified by mAb8610 capture on the plates (1 mg of N-NR1 per well) at 22° C. for one hour. The phage binding was carried out by incubating with a total of 10^12 tu (transducing units) of a X9 library with a complexity of 1.2×10^10 recombinants. The binding buffer contains 10 mM Tris-HCl (pH 8.1), 100 mM NaCl and 1 mM EDTA for 3 hours at 4° C. Unbound material was removed with three washes of the binding buffer. The bound phagemid particles were recovered by adding […] of 0.1 M glycine-HCl (pH 2.2). After 10 minutes elution at room temperature, the elutes were immediately neutralized by mixing with equal volume of 0.1 M Trisbase (pH 9.2). The recovered phagemids were amplified in bacteria, and resultant phage preparations were used for the following round of purification.
After five consecutive rounds of selection, the ELISA tests were performed using the supernatant of overnight cultures in the presence of 100 mM Hepes-NaOH (pH7.5) and 100 mM NaCl. The wells were coated with receptors according to the procedure described above. The bound phage particles were first detected by using rabbit anti-phage antibody (1:10,000) followed by alkaline phosphatase (AP)-conjugated secondary antibody (1:5,000, Sigma). After washing the wells with the binding buffer, […] of developing solution containing 1 mg/ml pNPP (Sigma, Mo.) in 10 mM diethanolamine-HCl (pH 9.7) was added. The alkaline phosphatase activity was monitored at the wavelength of 408 nm using a microtiter plate reader. Phage purification. The bacteria in culture medium containing phage was removed by centrifugation at 5,000×g for 30 minutes. […]

[2] = biological target: T2, N-NR1 protein on cell surface of CHO cells (Rattus norvegicus, UniProt P35439); test: Phage-immunostain of CHO cells expressing N-NR1 on cell surface; type: cell-based, Chinese hamster; conditions: 500 mM Mag-4.1 peptide
T2 construct: N-NR1 (aa. 1-561); expressed in transfected cells
Method: (§1) Immunostain and Fluorescence Activated Cell Sorting (FACS). The cells were grown on cover glass coated with 1% gelatin. Prior to addition of immunoglobulin, the cells were first washed three times with cold PBS and fixed with 2% paraformaldehyde (PFA) overnight. After washing the cells with cold PBS, the fixed cells were incubated with mAb8610 (1 mg /ml) at room temperature for 1 hour. The binding of mAb8610 was detected by incubating with anti-mouse conjugated with Texas-red (15 mg per ml) 1 hour at 4C. The immunostain was visualized by a Nikon Optiphot-2 fluorescent microscope and images were collected/digitalized using a computer. Cytometry of stained cells were analyzed on either FACScan or FACStar Plus Sorter (Becton-Dickinson, San Jose, Calif.). An Argon laser is used and tuned at 488 nm. The green fluorescence was recorded in the FLI emission channel.
(§2) Phage-immunostain and Phage-FACS detection. The purified phage preparation was used to stain live cells. For immunostain the cells were washed three times with cold PBS. Phage binding were initiated by incubating with the cells with purified phage (10^10 tu per ml) on ice for 1 hour. […] The phage-binding was detected first by rabbit anti-phage antibody (1:10,000 dilution) followed by Fluorescein labeled anti-rabbit antibody (10 mg/ml, Vector Lab, Calif.). The fluorescence labeled cells were visualized under a fluorescence microscope. […]

[3] = biological target: T3, N-NR1 protein on CHO cells (Rattus norvegicus, UniProt P35439); test: Phage-FACS of CHO cells expressing N-NR1; type: cell-based, Chinese hamster
T3 construct: N-NR1 (aa. 1-561); expressed in transfected cells
Method: as §1, §2

[4] = biological target: T4, functional NMDA receptor channels (NR1 and NR2A) in HEK cells (Rattus norvegicus, UniProt P35439); test: Phage-immunostain of HEK cells transiently expressing NR1 and NR2A; type: cell-based; conditions: 500 mM synthetic Mag-4.1 peptide
T4 construct: expressed in transfected cells; host or cells: HEK cells, transient cotransfection
Method: Phage-immunostain and Phage-FACS detection. The purified phage preparation was used to stain live cells. For immunostain the cells were washed three times with cold PBS. Phage binding were initiated by incubating with the cells with purified phage (10^10 tu per ml) on ice for 1 hour. After incubation, the unbound phage was removed by three washes of cold PBS supplemented with 1% bovine serum albumin (BSA). the fixation was carried out using 2% PFA overnight at 4C. The phage-binding was detected first by rabbit anti-phage antibody (1:10,000 dilution) followed by Fluorescein labeled anti-rabbit antibody (10 mg/ml, Vector Lab, Calif.). The fluorescence labeled cells were visualized under a fluorescence microscope. For Phage-FACS, the cell preparation procedures were identical except the cells were first dislodged from the dishes by incubating with PBS supplemented with 5 mM EDTA.

[5] = biological target: N-NR1 fusion protein (putative amino-terminal domain of NR1, a.a 1-561, fused to the mAb8610 epitope tag and GPI anchor signal sequence) (UniProt P35439); test: phage-overlay on nitrocellulose after denaturation-renaturation

GGGLNDWFITYIGGG [Mag-4.1 peptide]
Affinity of monovalent peptide ([1]; competition phage ELISA (FIG. 1C)): low affinity
Inhibition of Mag-4.1 phage binding to N-NR1 by synthetic peptide ([1]; synthetic peptide, phage ELISA): completely inhibited
Inhibition of phage staining signal by synthetic peptide [2]: completely inhibited
Inhibition of FACS phage stain signal by synthetic peptide, low N-NR1 CHO cells ([3]; 500 mM Mag-4.1 peptide (FIG. 5C)): completely inhibited
Effect of synthetic peptide on FACS staining signal, 1:1 mixture of low and high N-NR1 CHO cells ([3]; 500 mM Mag-4.1 peptide (FIG. 5E)): the staining signal is sensitive to Mag-4.1 peptide
Inhibition of phage stain signal on NR1/NR2A HEK cells by synthetic peptide [4]: completely inhibited

LEAWFLQYI [Mag-4.2]
Phage binding to N-NR1 ([1]; phage ELISA, immobilized N-NR1): specifically association with N-NR1

LNDWFITYI (peptide, not shown: large carriers) [Mag-4.1 phage]
least amount of N-NR1 protein per lane at which specific binding is detected [5]: 20 ng
